Experiment: soluble on expression in E. coli; label from the status in PepcDB or PDB records

Sequence	soluble on expression in E. coli
MMEITRETMSFTSTTPSARAPLGGRTTGNVTSQDRMLKIVTEMRSGAGSGLSPFGQNAASTIRDSREREKKEMSDLNDRLASYIEKVRFLEAQNRKLAADLDALRSKWGKDTHNIRNMYEGELVDAQKLIDETNKQRKDMEGQLKKMQDELAEMRRKLEDATKGREQDRAKIDALLVTLSNLEAEISLLKRRIAQLEDEVKRIKQENQRLLSELQRARTDLDQETLNRIDYQNQVQTLLEEIDFLRRVHDNEIKELQTLASRDTTPENREFFKNELSSAIRDIREEYDQVNNVHRNDMESWYRLKVQEIQTQSARQNMEQGYAKEEVKRLRTQLSDLRGKLADLESRNSLLEKQIQELNYQLEDDQRSYEAALNDRDSQIRKMREECQALMVELQMLLDTKQTLDAEIAIYRKMLEGEENRAGLKQLVEQVVKTHAITQETDTETMRVVKGETASRQSFQRSAKGNVSIHEASPDGKFIVLQNTHRAKDEAIGEWKLKRRIDGKRENVYTLPRDFVLRAGKTLKIFARNQGVASPPDQLVYDAEDSFGSGNNVQTILFNKEGEERATHIQRQSTA	not soluble
MGSDKIHHHHHHLPENAASLGCGAWKGDTVSIEAGGMNRRVGEIVGQVLARLRPKAKSLIITVYGDAISHHGGSAWLGSVINLVEPLGLNERIVRTSVFRLSKEAWLSSMQIGRRSYYRLTEMGRRRFEAAHNRIYHYNGKPWDGRWTLAVTNIDGMDAERRDSLRRDLGWLGFGQLASGVMVHPDPDQSAVRQALAEAGVQDRAVMMTAAAEDWVTPEALRDLIHTCWDLERLASDYNEFLDTFRPLWQVLSGNGDLDPQMCFVVRTLLMHGYRRALLRDPMLPDELLPANWPGTSARVLCRNLYRLVQAAAETHVMGMLETAEGPVPEAHPAYYTRFGGLQSAD	not soluble
MSLIKLIATDMDGTLLNAAHEISQPNIDAIKYAQEQGITVVIATGRAFYEAQAPVADTDLTVPYICLNGAEVRDETFNVMSTSHLNKSLVHKITNVLKDAGIYYQVYTSRAIYTEDPQRDLDIYIDIAERAGQHANVERIKNGIQRRIDNGTLKVVDNYDAIENIPGELIMKILAFDGNLEKIDKASKILAESPNLAISSSSRGNIEITHSDAQKGIALETIAERLGIEMKDVMAIGDNLNDLSMLEKVGYPVAMENGAEEVKKIAKYVTDTNENSGVGKAIMKLLREQEGHHHHHH	soluble
MGLDIRFTGVADSSGALHDPDGLDIRGVLEHKKRAGLGSHPSGYEGMTGDELLDEAEYDCLVEATPTNIEDGEPGRSLVLKAMGDGKHVVTSNKGHLALFYSELMEAASEAGVEFMFEASVGGAMPIINLARETLASCTIESVIGILNGTTNFILSRMASEGSSYRQALIEAQELGIAETNPAQDVEGTDAACKAVIIANSILGRPCTLRDVRVEGITGITQGAIELAAQEGYLIKLIAEISGDRLEVGPRLVRMGSPYAVDGTLNMATLRTDLAGEVTAVGRGAGSLETASAMLTDTITIWRKSGLEHHHHHH	not soluble
GSDNESDEEVAGKKSFSAQEREYIRQGKEATAVVDQILAQEENWKFEKNNEYGDTVYTIEVPFHGKTFILKTFLPCPAELVYQEVILQPERMVLWNKTVTACQILQRVEDNTLISYDVSAGAAGGVVSPRDFVNVRRIERRRDRYLSSGIATSHSAKPPTHKYVRGENGPGGMIVLKSASNPRVCTFVWILNTDLKGRLPRYLIHQSLAATMFEFAFHLRQRISELGAR	soluble
MALLTSKLRYLLLFYAVFQAAQFGLRWKSYDISPKQFKTIAGKAAAAPTISQSISTLTSGMRTYYEPIMPSHFEWHAIQLGGLTLRMYPMLTAFTEFAAAFSAPFPTSGRPGLHWANTTCTVLKGKVSRFNDGTQDETSENFASGAAFRHGQFESHVYSFEKDTYVACYGRGFLPLSSTVHVTSGISLGEPLSVIQFYMKQAYNYWNNLSHTLYRVFQHYKARATGEL	not soluble
LYAHAVESLRHEITAVLLIAKPEDEVLLRLESPGGVVHGYGLAASQLRRLRERNIPLTVAVDKVAASGGYMMACVADKIVSAPFAVIGSVGVVAEVPNIHRLLKKHDIDVDVMTAGEFKRTVTFMGENTEKGKQKFRQELEETHQLFKQFVSENRPGLDIEKIATGEHWFGRQALALNLIDEISTSDD	not soluble
MGSDKIHHHHHHMKPLPAQAIWFTAPHTVSIREEIAPPPAYGDVRIAAIASLISHGTERLVYRGEVDPTLALDLPTLQGSFAFPIKYGYAIAGRVIDIGPGVEQFQIGDPVAALHPHQTIFTLPAHLVKRLPDTLDPALGGFYANVETALTICHDAAPRLGETVVVLGQGVVGLLVTQLLQRTGAQVIAVEPDAHRRALATQFGATTLAQADPATIAELTDGRGADIVVEVSGSPAALQQAIELTATEGLVVVASWYGQKPAPLILGGHFHRGRVRLRSSQVGRLAPETLPRWDYARRSATVMNLLPRLCLNELISHRIPFVQAAAAYDLLDQAPPGLVQVMLTYADYAPQT	not soluble
CIAGHSRGGLIALIAAALKGKWAIAVSAPSDRRKQKEYLSKFPPGTVQYNIYQDLMKMPEYELEYSSLSYADRLKKVLLIHGEDDEMVLKEHSITLCDTIKRMGGDCELHIIPKMKHTPLGQQYQTIWSIIEDWIKRNS	not soluble
MAGFISNFFGVGDSDSQYEEPTEASQAAAPTESATNTRSTPKVVPMQGGKSVNSKIALFEPKIYSDVKEIATQLLKNQAVIINFDHVDDEMARRIVDFLTGTVFAINGEIERIGDEIFLCIPENYEVSGSTTSQFDTSKLLEHHHHHH	not soluble
MDALTDSGSDPLLSAALGSPIHHAILSMDDEVDGNCDDVDDISPESHHDNHFIDFTDDLVVQTERNLSKKGRTSNRNARQGYDNYATLTNLQPLPPISTVTSKSTKVQRPSPSPNFYFPTSSNSSYDMKYEEEEDDCEGITHSSSSPSDFSNHGTDLNHPFSASSFDSFDVTTVSTTATSTIMNSTDKFIARIQEADSTTKSPKGTSPAALMHGHCEEDFDDGEELNTKELALQIAAELKRYSIPQAIFAERVLCRSQGTLSDLLRNPKPWSKLKSGRETFRRMAKWLEEPEFQRMSALRLAACKRKEEHTTPNSPQMVVPKKTRLVFSDIQRRTLQAIFRETKRPSREMQITISQQLNLDPTTVANFFMNARRRGHDLKQETSESEERSEEPSIHFEHSASSSSASSSSSSSMQLDNYICDINTINILEEPSPEPREIKYSMQLLENELDFPANILEP	not soluble
MTTEFNEIMKEINDSETIIIHRHVRPDPDAYGSQLGLKNYLKLKFPDKKIFAVGETEPSLDFIGTFDEISDDTYNEALVIVCDTANSPRISDERFNQGRLLVKIDHHPAVDQYGDINFVNDQASSTSEIIFDFISHFNDIPIIDASVARVLYLGIVGDTGRFLFNNTTSHTMGVAGQLLTFPFNHNEELNKMGEKDPKLLPFQGYVLQHFDLNEKGFCKVTITKEILEQFDIAANQASLFVNAIADIQGLKIWVFAVDEGTEIRCRIRSKGIVINDIASDFGGGGHPNASGVSVRDWAQFETLAEALNNKLLEHHHHHH	soluble
MGGSHHHHHHGMASMTGGQQMGRDLYDDDDKDRWGSELEISMEQVSASIGNFTVDLFNKLNETNRDKNIFFSPWSISSALALTYLAAKGSTAREMAEVLHFEQAENIHSGFKELLTAFNKPRNNYSLRSANRIYVEKTYALLPTYLQLSKKYYKAEPQKVNFKTAPEQSRKEINTWVEKQTESKIKNLLSSDDVKATTRLILVNAIYFKAEWEVKFQAEKTSIQPFRLSKNKSKPVKMMYMRDTFPVLIMEKMNFKMIELPYVKRELSMFILLPDDIKDGTTGLEQLERELTYERLSEWADSKMMTETLVDLHLPKFSLEDRIDLRDTLRNMGMTTAFTTNADFRGMTDKKDLAISKVIHQSFVAVDEKGTEAAAATAVIISFTTSVINHVLKFKVDHPFHFFIRHNKSKTILFFGRFCCPVE	soluble
MGSDKIHHHHHHMSASSQSPKGDGLLQTISVKILKRVGKEEVAYVYLGETSRGNLVEFVESIQPPVPREKKWVLIVSTLAGCPVGCLMCDAGGFYRGKLSADEIFEQIDFLVKSRYPNGRIPSEKFKIQFARMGEPALNEAVLDVLKELPARYEAPGLMPSISTVAPCGTDSFFEDLLKIKEKHYRGKFQLQFSIHSTDEKERDQIIPVKKWSLEKISEFGKRFVKENDRKITLNFAVAQEYSLDPKVIIRVFDPEKFLVKITPVNPTYRSKENNLNSDVDVERKELLKHRNFIEELKKAGFEVILSIGELEENKIGSNCGQYVQRHLMSERKIVDGYQYV	not soluble
MGSDKIHHHHHHMSNVDRAEIAKFEALAHRWWDRESEFKPLHEINPLRVNWIDERVSLAGKKVLDVGCGGGILSEAMALRGATVTGIDMGEAPLAVAQLHQLESGVQVEYRQITAEALAEEMPEQFDVVTCLEMLEHVPDPSSVIRACYRMVKPGGQVFFSTINRNPKAYLLAIVGAEYILKMLPRGTHDFKKFIRPSELGAWSRDAGLQVKDIIGLTYNPLTKHYKLNSDVDVNYMIQTLREE	not soluble
MGSDKIHHHHHHVAASPLRGRTPHRRGPRACRRGPLPRVGAGGLRQMTATEAYLQKGWLRFAAEESIRDWAAHAQRCAETATADPAHAKWLDCEGTWFIGVDALPNDPDGRLPSGPPLEGAALDFIRAHFGEIPALHRAQLSVIYPGYPRPRRGESDAAFGYRCKRDGAHVDGIKIYGTARRRRVEEPHAWVLGLPLNKTSKNAAPLVVWEGSHLIMREAFRLAFEGIALEDWAHVDITDIYTAARREVFETCKRVEVHANPGEAYLMHRLCLHGVAPWADGASATDGAGRMIAYFRPEMPNWQAHWLSDL	not soluble
GPHSLRYFVTAVSRPGLGEPRFISVGYVDNTEFVRFDSDAENPRYEPRARWMEQEGPEYWERETQKAKGNEQSFRVDLRTLLGYYNQSKGGSHTIQVISGCEVGSDGRLLRGYQQYAYDGCDYIALNEDLKTWTAADMAALITKHKWEQAGEAERLRAYLEGTCVEWLRRYLKNGNATLLRTDSPKAHVTHHSRPEDKVTLRCWALGFYPADITLTWQLNGEELIQDMELVETRPAGDGTFQKWASVVVPLGKEQYYTCHVYHQGLPEPLTLRWEPPPST	soluble
MSNKEYRPTLAQLRTFATIAENKHFGTAAAKLSISQPSLSQALAALENGLGVQLIERSTRRVIVTPAGEMLLPYAKATLDAADAFLAHAH	soluble
MNTFTACVERGENWWVAQLVEDPGVIVQARRLDQIQEEIRDALALFPKLTDSPETASVHLDLVGEIEQKAQATRDQLAAIRECEAHELANMSQHARRLQAAGVLRDSMQIASGSQAARS	not soluble
HPGEVIVLIHGLMRTYVSMKPLKAYLEAQGYQVYLYKYPSARYNIQEHGVYLNQFITTILENNPAIKIHFVTHSLGGIIVREALSKLSQKQLKHVGYLIMLAPPNQGSKLAKFSIKLFPMISYFIKPLAELSSEQTSYVHRVPVPDIKMGIIAGRFDAKVPPDYARLQGQTEQVIINNTHTFIMYDSKVKKLVLSFLEKGKFE	not soluble
MEFINNITIRARVAFYLAVAQKAFEGLSENDQGYLQADEALKQCWNWLKGKNISGDELCEYLENERDTGLMVYSSFVQGDPVKEPIWITIITALMYTIWQAYQIENEKYLPESIEQVDEGTIDILIEYAKKCANYDEHWIKLLENYLLEKYRTTNMNEVGIAILKDEIMGIR	soluble
NKNFTWTTELTVSRNKNKVEKLPNTVQGFDTRNLTSIQEGYSLYSYWVYNQTGVNSQTGAIEIEDVNKDGKITTADRKIMGSVFPKLFGGFNNKFTYKGIDLGIFFIYSYGNKTWNQNEALGEQGGTLGDNRVLMAGQLDRWTTPGQETMVPKLTAANYQYFEVSRFLEDASFIRLRSLTLGYTLPKKWSSAVKTEKIRFYFTGTNLLLITKYTGSDPESNLGQGNLQGYDYDTPPQPRTIQFGLNLTL	not soluble
